Biological target: HA-tagged cMyBP-C construct C6–C8 (human)
Assay: co-IP; HEK293 cells co-expressing cMyc-tagged BT (RyR) constructs with HA-tagged cMyBP-C constructs; HA–cMyBP-C immunoprecipitated with Ab^HA from solubilised cell lysates, co-precipitated BT detected by western blotting with Ab^cMyc; non-immune rabbit IgG as negative control; densitometry

HA-tagged cMyBP-C construct C6–C8 (human), sequence (Q14896 whole entry): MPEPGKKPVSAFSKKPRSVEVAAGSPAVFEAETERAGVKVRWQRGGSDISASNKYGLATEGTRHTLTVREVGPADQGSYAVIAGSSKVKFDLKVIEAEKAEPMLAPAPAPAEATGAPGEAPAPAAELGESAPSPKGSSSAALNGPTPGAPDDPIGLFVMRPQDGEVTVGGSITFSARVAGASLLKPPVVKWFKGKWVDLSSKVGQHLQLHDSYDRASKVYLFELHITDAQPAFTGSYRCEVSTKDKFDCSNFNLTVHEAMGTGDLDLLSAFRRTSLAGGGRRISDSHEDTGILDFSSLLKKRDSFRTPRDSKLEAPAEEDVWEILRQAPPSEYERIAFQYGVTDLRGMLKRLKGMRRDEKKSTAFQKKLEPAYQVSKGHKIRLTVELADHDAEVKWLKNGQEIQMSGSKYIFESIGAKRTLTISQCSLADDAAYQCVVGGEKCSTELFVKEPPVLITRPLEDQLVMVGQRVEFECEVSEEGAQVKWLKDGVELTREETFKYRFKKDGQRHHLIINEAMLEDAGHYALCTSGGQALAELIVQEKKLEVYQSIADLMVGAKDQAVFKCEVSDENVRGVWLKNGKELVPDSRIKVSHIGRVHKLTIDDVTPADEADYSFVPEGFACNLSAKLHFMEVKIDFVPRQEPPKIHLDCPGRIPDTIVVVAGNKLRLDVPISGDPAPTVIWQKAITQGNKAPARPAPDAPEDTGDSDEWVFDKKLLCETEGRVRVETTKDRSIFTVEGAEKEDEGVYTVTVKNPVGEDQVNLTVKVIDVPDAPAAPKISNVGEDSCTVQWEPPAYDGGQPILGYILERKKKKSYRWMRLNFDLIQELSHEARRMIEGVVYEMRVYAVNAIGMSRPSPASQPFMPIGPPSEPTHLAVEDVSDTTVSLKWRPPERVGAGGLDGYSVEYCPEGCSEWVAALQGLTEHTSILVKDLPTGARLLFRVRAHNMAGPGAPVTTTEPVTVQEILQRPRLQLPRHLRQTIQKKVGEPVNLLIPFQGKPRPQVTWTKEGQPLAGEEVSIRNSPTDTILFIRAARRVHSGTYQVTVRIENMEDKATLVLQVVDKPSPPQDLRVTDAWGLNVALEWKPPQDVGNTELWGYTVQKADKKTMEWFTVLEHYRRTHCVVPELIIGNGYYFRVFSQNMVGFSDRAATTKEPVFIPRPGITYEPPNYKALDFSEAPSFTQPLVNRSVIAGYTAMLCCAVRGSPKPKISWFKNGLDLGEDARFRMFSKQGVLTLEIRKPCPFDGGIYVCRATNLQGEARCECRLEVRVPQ

BT4L (cMyc-tagged RyR2 residues 1–906) (from UniProt Q92736 1-906) (domain or fragment)
fold signal against C8–C10: 3 fold
